These results are taken from patent WO2017205216A1 (dated 2017).

This assay addresses T1, murine PD-L1 (murine, UniProt Q9EP73 19-238, limits assumed).
T1 construct: also called PD-Ll; mouse target protein
In words: not described; stated in Example 1.

T1 sequence (Q9EP73 19-238 limits assumed): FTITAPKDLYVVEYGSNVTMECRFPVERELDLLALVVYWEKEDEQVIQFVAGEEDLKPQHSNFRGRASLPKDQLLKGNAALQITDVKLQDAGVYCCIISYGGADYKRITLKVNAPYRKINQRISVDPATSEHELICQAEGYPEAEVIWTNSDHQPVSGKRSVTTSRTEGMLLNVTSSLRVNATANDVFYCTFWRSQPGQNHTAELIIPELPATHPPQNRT

B1: anti-murine PD-L1 clone 178G7 (antibody, V domains shown)
VH: QVQLQQSGADLAKPGSSVKISCKASGYNFNSYYINWIKQTTGQGLEYIGYINTVSGTTKYSEKFKGKATLTVDKSSSTAFMQLSSLTPDDSAVYYCARGTIVLDDYWGQGVKVTVSS
VL: DIVMTQTPSSQAVSAGEKVTMSCKSSQSLLYNEKKKNYLAWYQQKPGQSPKLLIYWASTRESGVPDRFLGSGSGTDFTLTINSVQAEDLAVYYCQQSYDFPRTFGGGTKLELKR
notes: also called anti-PD-L1 antibody; anti-PD-L1 therapy
For B1, the binding result is given as “binds”.
